For one test, the target named is human GLP-1 receptor (human, UniProt P43220 24-463). Kind of test: cell-based or functional assay.
Another test addresses T1, human GIP receptor (human, UniProt P48546 22-466).
T1 sequence (looked up): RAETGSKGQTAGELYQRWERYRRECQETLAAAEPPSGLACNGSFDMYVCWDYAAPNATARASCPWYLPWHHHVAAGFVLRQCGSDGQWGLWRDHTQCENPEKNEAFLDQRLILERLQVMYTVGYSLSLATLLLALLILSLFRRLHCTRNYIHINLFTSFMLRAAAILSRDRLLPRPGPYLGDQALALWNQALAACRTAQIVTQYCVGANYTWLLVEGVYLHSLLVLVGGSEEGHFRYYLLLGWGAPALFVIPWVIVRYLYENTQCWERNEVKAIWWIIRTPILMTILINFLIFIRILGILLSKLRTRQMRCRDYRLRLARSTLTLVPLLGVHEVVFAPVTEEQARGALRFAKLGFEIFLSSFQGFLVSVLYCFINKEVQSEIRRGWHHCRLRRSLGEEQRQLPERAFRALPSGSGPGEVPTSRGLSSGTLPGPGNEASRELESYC
Kind of test: cell-based or functional assay.

Numbered stars: 1 amine (or outer) side, 2 acyl side, 3 side chain; on linkers, the order of the positions; unused ones are H or OH. Square brackets hold non-standard residues; d marks the D form. Side chains are listed from the residue outwards. * marks the point of attachment. γGlu = O=C(O)[C@H](CCC(=O)[*:2])N[*:1]; Palmitoyl = CCCCCCCCCCCCCCCC(=O)*; Aib = CC(C)(N)C(=O)O

B1: Compound 45 (peptide)
peptide: H-Y[Aib]EGTFTSDYSKYLDSK([γGlu-Palmitoyl])AAHDFVEWLLSA-NH2
SMILES: CCCCCCCCCCCCCCCC(=O)N[C@@H](CCC(=O)NCCCC[C@H](NC(=O)[C@H](CO)NC(=O)[C@H](CC(=O)O)NC(=O)[C@H](CC(C)C)NC(=O)[C@H](Cc1ccc(O)cc1)NC(=O)[C@H](CCCCN)NC(=O)[C@H](CO)NC(=O)[C@H](Cc1ccc(O)cc1)NC(=O)[C@H](CC(=O)O)NC(=O)[C@H](CO)NC(=O)[C@@H](NC(=O)[C@H](Cc1ccccc1)NC(=O)[C@@H](NC(=O)CNC(=O)[C@H](CCC(=O)O)NC(=O)C(C)(C)NC(=O)[C@@H](N)Cc1ccc(O)cc1)[C@@H](C)O)[C@@H](C)O)C(=O)N[C@@H](C)C(=O)N[C@@H](C)C(=O)N[C@@H](Cc1c[nH]cn1)C(=O)N[C@@H](CC(=O)O)C(=O)N[C@@H](Cc1ccccc1)C(=O)N[C@H](C(=O)N[C@@H](CCC(=O)O)C(=O)N[C@@H](Cc1c[nH]c2ccccc12)C(=O)N[C@@H](CC(C)C)C(=O)N[C@@H](CC(C)C)C(=O)N[C@@H](CO)C(=O)N[C@@H](C)C(N)=O)C(C)C)C(=O)O
For the molecule B1, the “EC50, cAMP induction in HEK293 cells expressing human GLP-1 R” value in the test with human GLP-1 receptor amounted to 0.11 nM. Also, the “EC50, cAMP induction in HEK293 cells expressing human GIP R” value with human GIP receptor was 0.32 nM.

B2: Compound 46 (peptide)
peptide: H-Y[Aib]EGTFTSDYSIYLEKK([γGlu-Palmitoyl])AAKEFVEWLLSA-NH2
SMILES: CCCCCCCCCCCCCCCC(=O)N[C@@H](CCC(=O)NCCCC[C@H](NC(=O)[C@H](CCCCN)NC(=O)[C@H](CCC(=O)O)NC(=O)[C@H](CC(C)C)NC(=O)[C@H](Cc1ccc(O)cc1)NC(=O)[C@@H](NC(=O)[C@H](CO)NC(=O)[C@H](Cc1ccc(O)cc1)NC(=O)[C@H](CC(=O)O)NC(=O)[C@H](CO)NC(=O)[C@@H](NC(=O)[C@H](Cc1ccccc1)NC(=O)[C@@H](NC(=O)CNC(=O)[C@H](CCC(=O)O)NC(=O)C(C)(C)NC(=O)[C@@H](N)Cc1ccc(O)cc1)[C@@H](C)O)[C@@H](C)O)[C@@H](C)CC)C(=O)N[C@@H](C)C(=O)N[C@@H](C)C(=O)N[C@@H](CCCCN)C(=O)N[C@@H](CCC(=O)O)C(=O)N[C@@H](Cc1ccccc1)C(=O)N[C@H](C(=O)N[C@@H](CCC(=O)O)C(=O)N[C@@H](Cc1c[nH]c2ccccc12)C(=O)N[C@@H](CC(C)C)C(=O)N[C@@H](CC(C)C)C(=O)N[C@@H](CO)C(=O)N[C@@H](C)C(N)=O)C(C)C)C(=O)O
Take B2: the “EC50, cAMP induction in HEK293 cells expressing human GLP-1 R” value in the test with human GLP-1 receptor is 0.048 nM. In the test with human GIP receptor, the “EC50, cAMP induction in HEK293 cells expressing human GIP R” value amounted to 0.088 nM.

B3: Compound 41 (peptide)
peptide: H-Y[Aib]EGTFTSDYSIYLESKAAHDFVEWLLSA-NH2
SMILES: CC[C@H](C)[C@H](NC(=O)[C@H](CO)NC(=O)[C@H](Cc1ccc(O)cc1)NC(=O)[C@H](CC(=O)O)NC(=O)[C@H](CO)NC(=O)[C@@H](NC(=O)[C@H](Cc1ccccc1)NC(=O)[C@@H](NC(=O)CNC(=O)[C@H](CCC(=O)O)NC(=O)C(C)(C)NC(=O)[C@@H](N)Cc1ccc(O)cc1)[C@@H](C)O)[C@@H](C)O)C(=O)N[C@@H](Cc1ccc(O)cc1)C(=O)N[C@@H](CC(C)C)C(=O)N[C@@H](CCC(=O)O)C(=O)N[C@@H](CO)C(=O)N[C@@H](CCCCN)C(=O)N[C@@H](C)C(=O)N[C@@H](C)C(=O)N[C@@H](Cc1c[nH]cn1)C(=O)N[C@@H](CC(=O)O)C(=O)N[C@@H](Cc1ccccc1)C(=O)N[C@H](C(=O)N[C@@H](CCC(=O)O)C(=O)N[C@@H](Cc1c[nH]c2ccccc12)C(=O)N[C@@H](CC(C)C)C(=O)N[C@@H](CC(C)C)C(=O)N[C@@H](CO)C(=O)N[C@@H](C)C(N)=O)C(C)C
With B3, in the test with human GLP-1 receptor, the “EC50, cAMP induction in HEK293 cells expressing human GLP-1 R” value was found to be 0.011 nM. Moreover, the “EC50, cAMP induction in HEK293 cells expressing human GIP R” value with human GIP receptor turned out to be 0.013 nM.

B4: Compound 40 (peptide)
peptide: H-Y[Aib]EGTFTSDYSIYLDEKAAKDFVEWLLSA-NH2
SMILES: CC[C@H](C)[C@H](NC(=O)[C@H](CO)NC(=O)[C@H](Cc1ccc(O)cc1)NC(=O)[C@H](CC(=O)O)NC(=O)[C@H](CO)NC(=O)[C@@H](NC(=O)[C@H](Cc1ccccc1)NC(=O)[C@@H](NC(=O)CNC(=O)[C@H](CCC(=O)O)NC(=O)C(C)(C)NC(=O)[C@@H](N)Cc1ccc(O)cc1)[C@@H](C)O)[C@@H](C)O)C(=O)N[C@@H](Cc1ccc(O)cc1)C(=O)N[C@@H](CC(C)C)C(=O)N[C@@H](CC(=O)O)C(=O)N[C@@H](CCC(=O)O)C(=O)N[C@@H](CCCCN)C(=O)N[C@@H](C)C(=O)N[C@@H](C)C(=O)N[C@@H](CCCCN)C(=O)N[C@@H](CC(=O)O)C(=O)N[C@@H](Cc1ccccc1)C(=O)N[C@H](C(=O)N[C@@H](CCC(=O)O)C(=O)N[C@@H](Cc1c[nH]c2ccccc12)C(=O)N[C@@H](CC(C)C)C(=O)N[C@@H](CC(C)C)C(=O)N[C@@H](CO)C(=O)N[C@@H](C)C(N)=O)C(C)C
Turning to B4, the “EC50, cAMP induction in HEK293 cells expressing human GLP-1 R” value with human GLP-1 receptor is 0.022 nM. Moreover, in the test with human GIP receptor, the “EC50, cAMP induction in HEK293 cells expressing human GIP R” value stood at 0.011 nM.

B5: Compound 42 (peptide)
peptide: H-Y[Aib]EGTFTSDYSIYLDKKAAHDFVEWLLSA-NH2
SMILES: CC[C@H](C)[C@H](NC(=O)[C@H](CO)NC(=O)[C@H](Cc1ccc(O)cc1)NC(=O)[C@H](CC(=O)O)NC(=O)[C@H](CO)NC(=O)[C@@H](NC(=O)[C@H](Cc1ccccc1)NC(=O)[C@@H](NC(=O)CNC(=O)[C@H](CCC(=O)O)NC(=O)C(C)(C)NC(=O)[C@@H](N)Cc1ccc(O)cc1)[C@@H](C)O)[C@@H](C)O)C(=O)N[C@@H](Cc1ccc(O)cc1)C(=O)N[C@@H](CC(C)C)C(=O)N[C@@H](CC(=O)O)C(=O)N[C@@H](CCCCN)C(=O)N[C@@H](CCCCN)C(=O)N[C@@H](C)C(=O)N[C@@H](C)C(=O)N[C@@H](Cc1c[nH]cn1)C(=O)N[C@@H](CC(=O)O)C(=O)N[C@@H](Cc1ccccc1)C(=O)N[C@H](C(=O)N[C@@H](CCC(=O)O)C(=O)N[C@@H](Cc1c[nH]c2ccccc12)C(=O)N[C@@H](CC(C)C)C(=O)N[C@@H](CC(C)C)C(=O)N[C@@H](CO)C(=O)N[C@@H](C)C(N)=O)C(C)C
For the molecule B5, in the test with human GLP-1 receptor, the “EC50, cAMP induction in HEK293 cells expressing human GLP-1 R” value came to 0.012 nM. In addition, the “EC50, cAMP induction in HEK293 cells expressing human GIP R” value with human GIP receptor came to 0.007 nM.

B6: Compound 44 (peptide)
peptide: H-Y[Aib]EGTFTSDYSIYLDSKAAHDFVEWLLRA-NH2
SMILES: CC[C@H](C)[C@H](NC(=O)[C@H](CO)NC(=O)[C@H](Cc1ccc(O)cc1)NC(=O)[C@H](CC(=O)O)NC(=O)[C@H](CO)NC(=O)[C@@H](NC(=O)[C@H](Cc1ccccc1)NC(=O)[C@@H](NC(=O)CNC(=O)[C@H](CCC(=O)O)NC(=O)C(C)(C)NC(=O)[C@@H](N)Cc1ccc(O)cc1)[C@@H](C)O)[C@@H](C)O)C(=O)N[C@@H](Cc1ccc(O)cc1)C(=O)N[C@@H](CC(C)C)C(=O)N[C@@H](CC(=O)O)C(=O)N[C@@H](CO)C(=O)N[C@@H](CCCCN)C(=O)N[C@@H](C)C(=O)N[C@@H](C)C(=O)N[C@@H](Cc1c[nH]cn1)C(=O)N[C@@H](CC(=O)O)C(=O)N[C@@H](Cc1ccccc1)C(=O)N[C@H](C(=O)N[C@@H](CCC(=O)O)C(=O)N[C@@H](Cc1c[nH]c2ccccc12)C(=O)N[C@@H](CC(C)C)C(=O)N[C@@H](CC(C)C)C(=O)N[C@@H](CCCNC(=N)N)C(=O)N[C@@H](C)C(N)=O)C(C)C
Consider B6, for which, in the test with human GLP-1 receptor, the “EC50, cAMP induction in HEK293 cells expressing human GLP-1 R” value stood at 0.013 nM. Moreover, in the test with human GIP receptor, the “EC50, cAMP induction in HEK293 cells expressing human GIP R” value stood at 0.016 nM.

B7: Compound 39 (peptide)
peptide: H-Y[Aib]EGTFTSDYSIYLEKKAQKEFVEWLLSA-NH2
SMILES: CC[C@H](C)[C@H](NC(=O)[C@H](CO)NC(=O)[C@H](Cc1ccc(O)cc1)NC(=O)[C@H](CC(=O)O)NC(=O)[C@H](CO)NC(=O)[C@@H](NC(=O)[C@H](Cc1ccccc1)NC(=O)[C@@H](NC(=O)CNC(=O)[C@H](CCC(=O)O)NC(=O)C(C)(C)NC(=O)[C@@H](N)Cc1ccc(O)cc1)[C@@H](C)O)[C@@H](C)O)C(=O)N[C@@H](Cc1ccc(O)cc1)C(=O)N[C@@H](CC(C)C)C(=O)N[C@@H](CCC(=O)O)C(=O)N[C@@H](CCCCN)C(=O)N[C@@H](CCCCN)C(=O)N[C@@H](C)C(=O)N[C@@H](CCC(N)=O)C(=O)N[C@@H](CCCCN)C(=O)N[C@@H](CCC(=O)O)C(=O)N[C@@H](Cc1ccccc1)C(=O)N[C@H](C(=O)N[C@@H](CCC(=O)O)C(=O)N[C@@H](Cc1c[nH]c2ccccc12)C(=O)N[C@@H](CC(C)C)C(=O)N[C@@H](CC(C)C)C(=O)N[C@@H](CO)C(=O)N[C@@H](C)C(N)=O)C(C)C
Turning to B7, in the test with human GLP-1 receptor, the “EC50, cAMP induction in HEK293 cells expressing human GLP-1 R” value is 0.011 nM. In addition, the “EC50, cAMP induction in HEK293 cells expressing human GIP R” value with human GIP receptor was 0.0083 nM.

B8: Compound 43 (peptide)
peptide: H-Y[Aib]EGTFTSDYSIYLEKKAAKEFVEWLLSA-NH2
SMILES: CC[C@H](C)[C@H](NC(=O)[C@H](CO)NC(=O)[C@H](Cc1ccc(O)cc1)NC(=O)[C@H](CC(=O)O)NC(=O)[C@H](CO)NC(=O)[C@@H](NC(=O)[C@H](Cc1ccccc1)NC(=O)[C@@H](NC(=O)CNC(=O)[C@H](CCC(=O)O)NC(=O)C(C)(C)NC(=O)[C@@H](N)Cc1ccc(O)cc1)[C@@H](C)O)[C@@H](C)O)C(=O)N[C@@H](Cc1ccc(O)cc1)C(=O)N[C@@H](CC(C)C)C(=O)N[C@@H](CCC(=O)O)C(=O)N[C@@H](CCCCN)C(=O)N[C@@H](CCCCN)C(=O)N[C@@H](C)C(=O)N[C@@H](C)C(=O)N[C@@H](CCCCN)C(=O)N[C@@H](CCC(=O)O)C(=O)N[C@@H](Cc1ccccc1)C(=O)N[C@H](C(=O)N[C@@H](CCC(=O)O)C(=O)N[C@@H](Cc1c[nH]c2ccccc12)C(=O)N[C@@H](CC(C)C)C(=O)N[C@@H](CC(C)C)C(=O)N[C@@H](CO)C(=O)N[C@@H](C)C(N)=O)C(C)C
With B8, the “EC50, cAMP induction in HEK293 cells expressing human GLP-1 R” value with human GLP-1 receptor came to 0.017 nM. Also, in the test with human GIP receptor, the “EC50, cAMP induction in HEK293 cells expressing human GIP R” value stood at 0.0091 nM.

For the origin of these results see patent publication US20150299281A1 (ZEALAND PHARMA A S, published 2015).
